Results taken from patent US20240101710A1 (ALLOGENE THERAPEUTICS, published 2024).

Target: T1, anti-BCMA antibody clone C29 Fab
T1 construct: also called anti-BCMA clone C29 Fab
Test: Biacore (SPR), 25 C, HEPES buffer pH 7.4
Experimental: E10 purified from the hybridoma cell line supernatant was analyzed by Biacore assay against the antigen anti-BCMA clone C29 Fab. The Biacore assay was run, for example, in 10 mM HEPES buffer, with 150 mM NaCl and 0.05% Tween20 at pH 7.4 and 1 mg/mL BSA at 25° C.

T1 sequence (VH, as listed by the source, chain 1 of 2): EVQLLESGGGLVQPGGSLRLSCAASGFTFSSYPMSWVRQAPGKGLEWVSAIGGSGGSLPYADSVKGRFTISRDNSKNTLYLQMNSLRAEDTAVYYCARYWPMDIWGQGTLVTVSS
T1 sequence (VL, as listed by the source, chain 2 of 2): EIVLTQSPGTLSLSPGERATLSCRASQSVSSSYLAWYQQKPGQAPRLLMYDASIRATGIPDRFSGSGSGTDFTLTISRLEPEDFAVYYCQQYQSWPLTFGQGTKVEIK

- Kd: 0.11 nM
- koff: 0.000157 s⁻¹
- kon: 1.48e+06 M⁻¹ s⁻¹
- t1/2: 1.23 h
B1: anti-idiotypic antibody clone 87B12.E10 (E10), purified from hybridoma cell line (antibody, V domains shown)
VH: QVQLQQSGPGLVQPSQSLSIPCTVSGFSLTSYDVHWVRQSPGKGLEWLGVIWSGGSTGYNAIFRSRLSINKDNSKSQVFFKMTSLQPDDTAIYYCANFSPWYLPSYWDQGTLVTVSA
VL: QIVLTQSPAIMSASPGEKVTITCSASSNVSYMHWFQQKPGTSPKLWIYSTSNLASGVPARFSGSGSGTSYSLTISRMEAEDAATYYCQQRSSYPLTFGAGTKLELK
notes: Mouse (Balb/c) hybridoma antibody; also called E10 purified Ab from hybridoma cell line
